Earlier results in patent publication US20250304696A1, “METHODS AND COMPOSITIONS FOR TREATING BARTH SYNDROME” (PROVENTION BIO, INC., priority 2021, published 2025).

B1: inebilizumab (antibody, chains of the INN, looked up, V domains shown)
VH: EVQLVESGGGLVQPGGSLRLSCAASGFTFSSSWMNWVRQAPGKGLEWVGRIYPGDGDTNYNVKFKGRFTISRDDSKNSLYLQMNSLKTEDTAVYYCARSGFITTVRDFDYWGQGTLVTVSS
VL: EIVLTQSPDFQSVTPKEKVTITCRASESVDTFGISFMNWFQQKPDQSPKLLIHEASNQGSGVPSRFSGSGSGTDFTLTINSLEAEDAATYYCQQSKEVPFTFGGGTKVEIK
notes: cell depleting agent

Test system: depleted cell types (B cells)
Details: patients receiving depleting agents

Time to recover the depleted cell types, up to a year:
ocrelizumab
rituximab
B1
